Test results reported in paper PMC5461336, “Non-canonical Glucocorticoid Receptor Transactivation of gilz by Alcohol Suppresses Cell Inflammatory Response”.

These binders were tested against Glucocorticoid receptor (Hu-GR), unliganded (human, UniProt P04150 1-777) (assay: EMSA; no glucocorticoid; GR 40 ng (0.5 pmol), probe 0.5 ng (0.05 pmol), 1 ug poly(dI-dC), 25 ul; 6% non-denaturing PAGE; buffer, salt, pH and temperature not stated). Conditions: protein: recombinant; chain copies: 2; label: 32P 5'-end; blunt.
Glucocorticoid receptor (Hu-GR), unliganded, sequence (P04150 whole entry): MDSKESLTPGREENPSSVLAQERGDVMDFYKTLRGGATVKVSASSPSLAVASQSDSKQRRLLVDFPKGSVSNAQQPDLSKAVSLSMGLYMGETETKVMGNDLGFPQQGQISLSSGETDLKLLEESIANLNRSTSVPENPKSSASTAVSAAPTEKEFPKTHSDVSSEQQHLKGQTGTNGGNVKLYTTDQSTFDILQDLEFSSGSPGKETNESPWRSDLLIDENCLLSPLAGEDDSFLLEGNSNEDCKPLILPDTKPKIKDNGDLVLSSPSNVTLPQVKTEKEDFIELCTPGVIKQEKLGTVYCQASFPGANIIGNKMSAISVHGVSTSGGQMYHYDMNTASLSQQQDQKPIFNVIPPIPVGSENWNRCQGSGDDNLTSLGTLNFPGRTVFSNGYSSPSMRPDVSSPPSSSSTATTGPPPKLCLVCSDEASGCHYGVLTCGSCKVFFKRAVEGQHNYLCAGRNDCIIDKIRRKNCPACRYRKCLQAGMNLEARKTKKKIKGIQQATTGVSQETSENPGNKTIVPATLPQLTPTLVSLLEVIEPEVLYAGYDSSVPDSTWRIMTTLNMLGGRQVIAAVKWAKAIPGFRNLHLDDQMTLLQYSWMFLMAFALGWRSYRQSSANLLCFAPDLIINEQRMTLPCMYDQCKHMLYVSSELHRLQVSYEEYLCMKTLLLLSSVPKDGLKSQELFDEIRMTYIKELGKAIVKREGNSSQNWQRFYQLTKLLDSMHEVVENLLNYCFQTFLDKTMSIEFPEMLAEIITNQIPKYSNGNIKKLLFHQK

| Binder | binding result |
| --- | --- |
| Wt-GRE1 (dsDNA) DNA 1: CAAACTAGCGCTGTTCTTTACTGAATGCCC DNA 2: GGGCATTCAGTAAAGAACAGCGCTAGTTTG | binds |
| Mut-GRE1 (dsDNA) DNA 1: CAAACTAGCGCCAGGTCTTTACTGAATGCCC DNA 2: GGGCATTCAGTAAAGACCTGGCGCTAGTTTG | no binding |
| Wt-GRE2 (dsDNA) DNA 1: GGTGGAACCCAATGTTCTCCTTTGGTCCTG DNA 2: CAGGACCAAAGGAGAACATTGGGTTCCACC | binds |
| Mut-GRE2 (dsDNA) DNA 1: GGTGGAACCCAAGAGCACCCTTTGGTCCTG DNA 2: CAGGACCAAAGGGTGCTCTTGGGTTCCACC | no binding |
